Data as given in US20210071139A1.

Experiments:
Test in all cases: TOX IP-MS, EL4 nuclear extract, MiST
Nusap1 = Nusap1 (UniProt Q9ERH4)
Orc5 = Orc5 (UniProt Q9WUV0)
Thoc5 = Thoc5 (UniProt Q8BKT7)
Rbm42 = Rbm42 (UniProt Q91V81)
Dync1li1 = Dync1li1 (UniProt Q8R1Q8)
Dmap1 = Dmap1 (UniProt Q9JI44)
Mphosph10 = Mphosph10 (UniProt Q810V0)
Utp14a = Utp14a (UniProt Q640M1)
Ppie = Ppie (UniProt Q9QZH3)
Prrc2a = Prrc2a (UniProt Q7TSC1)
Rcn2 = Rcn2 (UniProt Q8BP92)
Cacybp = Cacybp (UniProt Q9CXW3)
C1qc = C1qc (UniProt Q02105)
Kntc1 = Kntc1 (UniProt Q8C3Y4)
Rrp8 = Rrp8 (UniProt Q9DB85)
Rpl37a = Rpl37a (UniProt P61514)
Cdc73 = Cdc73 (UniProt Q8JZM7)
Ing4 = Ing4 (UniProt Q8C0D7)
Meaf6 = Meaf6 (UniProt Q2VPQ9)
Prrc2c = Prrc2c (UniProt Q3TLH4)
Dnajc9 = Dnajc9 (UniProt Q91WN1)
Ikbkap = Ikbkap (UniProt Q7TT37)
Rbm34 = Rbm34 (UniProt Q8C5L7)
Tox4; Tox3 = molecular target: Tox4; Tox3
Sap130 = Sap130 (UniProt Q8BIH0)
Ccar1 = Ccar1 (UniProt Q8CH18)
env = molecular target: env
Zwilch = Zwilch (UniProt Q8R060)

Tox (from UniProt Q66JW3 1-526)
Abundance (Nusap1): 2.24e-05
MiST Score (Nusap1): 0.899
Reproducibility (Nusap1): 0.966
Specificity (Nusap1): 0.877
Abundance (Orc5): 2.13e-06
MiST Score (Orc5): 0.985
Reproducibility (Orc5): 0.971
Specificity (Orc5): 1
Abundance (Thoc5): 3.93e-06
MiST Score (Thoc5): 0.987
Reproducibility (Thoc5): 0.977
Specificity (Thoc5): 1
Abundance (Rbm42): 9.15e-06
MiST Score (Rbm42): 0.969
Reproducibility (Rbm42): 0.919
Specificity (Rbm42): 1
Abundance (Dync1li1): 5.91e-06
MiST Score (Dync1li1): 0.976
Reproducibility (Dync1li1): 0.941
Specificity (Dync1li1): 1
Abundance (Dmap1): 6.59e-06
MiST Score (Dmap1): 0.904
Reproducibility (Dmap1): 0.709
Specificity (Dmap1): 1
Abundance (Mphosph10): 1.33e-05
MiST Score (Mphosph10): 0.97
Reproducibility (Mphosph10): 0.924
Specificity (Mphosph10): 1
Abundance (Utp14a): 3.2e-06
MiST Score (Utp14a): 0.93
Reproducibility (Utp14a): 0.792
Specificity (Utp14a): 1
Abundance (Ppie): 1.28e-05
MiST Score (Ppie): 0.979
Reproducibility (Ppie): 0.953
Specificity (Ppie): 1
Abundance (Prrc2a): 7.11e-07
MiST Score (Prrc2a): 0.916
Reproducibility (Prrc2a): 0.862
Specificity (Prrc2a): 0.948
Abundance (Rcn2): 1.4e-05
MiST Score (Rcn2): 0.992
Reproducibility (Rcn2): 0.993
Specificity (Rcn2): 1
Abundance (Cacybp): 3.38e-05
MiST Score (Cacybp): 0.944
Reproducibility (Cacybp): 0.837
Specificity (Cacybp): 1
Abundance (C1qc): 0.000821
MiST Score (C1qc): 0.976
Reproducibility (C1qc): 0.943
Specificity (C1qc): 1
Abundance (Kntc1): 2.82e-06
MiST Score (Kntc1): 0.897
Reproducibility (Kntc1): 0.686
Specificity (Kntc1): 1
Abundance (Rrp8): 4.13e-06
MiST Score (Rrp8): 0.969
Reproducibility (Rrp8): 0.919
Specificity (Rrp8): 1
Abundance (Rpl37a): 0.00127
MiST Score (Rpl37a): 0.911
Reproducibility (Rpl37a): 0.731
Specificity (Rpl37a): 1
Abundance (Cdc73): 4.06e-05
MiST Score (Cdc73): 0.896
Reproducibility (Cdc73): 0.886
Specificity (Cdc73): 0.908
Abundance (Ing4): 0.00024
MiST Score (Ing4): 0.987
Reproducibility (Ing4): 0.977
Specificity (Ing4): 1
Abundance (Meaf6): 5.46e-05
MiST Score (Meaf6): 0.968
Reproducibility (Meaf6): 0.916
Specificity (Meaf6): 1
Abundance (Prrc2c): 7.52e-07
MiST Score (Prrc2c): 0.905
Reproducibility (Prrc2c): 0.71
Specificity (Prrc2c): 1
Abundance (Dnajc9): 5.16e-05
MiST Score (Dnajc9): 0.961
Reproducibility (Dnajc9): 0.892
Specificity (Dnajc9): 1
Abundance (Ikbkap): 1.13e-06
MiST Score (Ikbkap): 0.913
Reproducibility (Ikbkap): 0.737
Specificity (Ikbkap): 1
Abundance (Rbm34): 4.09e-05
MiST Score (Rbm34): 0.962
Reproducibility (Rbm34): 0.895
Specificity (Rbm34): 1
Abundance (Tox4; Tox3): 1.98e-05
MiST Score (Tox4; Tox3): 0.936
Reproducibility (Tox4; Tox3): 0.812
Specificity (Tox4; Tox3): 1
Abundance (Sap130): 5.37e-06
MiST Score (Sap130): 0.971
Reproducibility (Sap130): 0.926
Specificity (Sap130): 1
Abundance (Ccar1): 1.49e-06
MiST Score (Ccar1): 0.962
Reproducibility (Ccar1): 0.897
Specificity (Ccar1): 1
Abundance (env): 0.000113
MiST Score (env): 0.977
Reproducibility (env): 0.946
Specificity (env): 1
Abundance (Zwilch): 6.62e-05
MiST Score (Zwilch): 0.895
Reproducibility (Zwilch): 0.729
Specificity (Zwilch): 0.978
